In patent publication US20230303698A1 (HARBOUR BIOMED SHANGHAI, published 2023):

Molecular target: T1, human 4-1BB (human, UniProt Q07011 24-255)
T1 construct: whole, on cells; Expressed on CHO-K1/hu 4-1BB cells (GenScript, M00538); also called CD137; TNFRSF9
Assay: flow cytometry, CHO-K1/hu 4-1BB cells
Procedure: The binding ability of the binding protein to a CHO-K1 cell line CHO-K1/hu 4-1BB (GenScript, M00538) highly expressing human 4-1BB and a CHO-K1 cell line CHO-K1/cyno 4-1BB (GenScript, M00569) highly expressing cynomolgus monkey 4-1BB were determined by flow cytometry FACS. Specifically, the cells were digested and resuspended in a complete medium, and the cell density was adjusted to 2×10⁶ cells/mL. […] The cells were incubated at 4° C. for 1 h away from light. Then, the cells in each well were rinsed twice with 100 μL of pre-cooled FACS buffer (PBS buffer containing 0.5% BSA) and centrifuged at 500 g at 4° C. for 5 min, and then the supernatant was discarded. […] Then, the cells in each well were then rinsed twice with 200 μL of pre-cooled FACS buffer and centrifuged at 500 g at 4° C. for 5 min, and then the supernatant was discarded. Finally, a pre-cooled FACS buffer was added at 200 μL/well to resuspend the cells. Fluorescence signal values were read using a BD FACS CANTOII flow cytometer or an ACEA NovoCyte flow cytometer, and the data were processed and analyzed using FlowJo v10 (FlowJo, LLC) software.

T1 sequence (Q07011 24-255): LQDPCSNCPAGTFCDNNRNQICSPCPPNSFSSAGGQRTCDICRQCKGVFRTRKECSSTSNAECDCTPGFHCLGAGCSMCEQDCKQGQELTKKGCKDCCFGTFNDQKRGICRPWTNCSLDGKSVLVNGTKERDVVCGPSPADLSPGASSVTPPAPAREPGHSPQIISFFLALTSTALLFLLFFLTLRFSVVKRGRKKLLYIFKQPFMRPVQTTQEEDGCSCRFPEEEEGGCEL

Binder | binding result
PR003563 (bispecific antibody, human IgG1, kappa, L234A L235A, Structure 1, IgG-VH; CLDN18.2 Fab from PR002726, 4-1BB VH from PR001760; linker H1_15-RT; human IgG1 (AAG); also called CLDN18.2×4-1BB bispecific antibody molecule) light: not shown heavy: EVQLLESGGGLVQPGGSLRLSCAASGFTFSSFVMSWVRQAPGKGLEWVSTISGSGRSTYYADSVKGRFTISRDNSKNTLHLQMNSLRAEDTAVYYCAKDAAAAGTKFDYWGQGTLVTVSSASTKGPSVFPLAPSSKSTSGGTAALGCLVKDYFPEPVTVSWNSGALTSGVHTFPAVLQSSGLYSLSSVVTVPSSSLGTQTYICNVNHKPSNTKVDKKVEPKSCDKTHTCPPCPAPEAAGGPSVFLFPPKPKDTLMISRTPEVTCVVVDVSHEDPEVKFNWYVDGVEVHNAKTKPREEQYNSTYRVVSVLTVLHQDWLNGKEYKCKVSNKALGAPIEKTISKAKGQPREPQVYTLPPSREEMTKNQVSLTCLVKGFYPSDIAVEWESNGQPENNYKTTPPVLDSDGSFFLYSKLTVDKSRWQQGNVFSCSVMHEALHNHYTQKSLSLSPGEPKSSDKTHTPPPPPRTEVQLVESGGGVVQPGGSLRLSCAASGFTFSNYAMTWVRQAPEKGLEWVSSISGSGVSTYYADSVKGRFTISRDNSKNTLYLQMTRLTAEDTAVYFCAKEGSSETDDHYYNVDVWGQGTTVTVSS | binds
PR003564 (bispecific antibody, human IgG1, kappa, L234A L235A, Structure 1, IgG-VH; CLDN18.2 Fab from PR002726, 4-1BB VH from PR001836; linker H1_15-RT; human IgG1 (AAG); also called CLDN18.2×4-1BB bispecific antibody molecule) light: not shown heavy: EVQLLESGGGLVQPGGSLRLSCAASGFTFSSFVMSWVRQAPGKGLEWVSTISGSGRSTYYADSVKGRFTISRDNSKNTLHLQMNSLRAEDTAVYYCAKDAAAAGTKFDYWGQGTLVTVSSASTKGPSVFPLAPSSKSTSGGTAALGCLVKDYFPEPVTVSWNSGALTSGVHTFPAVLQSSGLYSLSSVVTVPSSSLGTQTYICNVNHKPSNTKVDKKVEPKSCDKTHTCPPCPAPEAAGGPSVFLFPPKPKDTLMISRTPEVTCVVVDVSHEDPEVKFNWYVDGVEVHNAKTKPREEQYNSTYRVVSVLTVLHQDWLNGKEYKCKVSNKALGAPIEKTISKAKGQPREPQVYTLPPSREEMTKNQVSLTCLVKGFYPSDIAVEWESNGQPENNYKTTPPVLDSDGSFFLYSKLTVDKSRWQQGNVFSCSVMHEALHNHYTQKSLSLSPGEPKSSDKTHTPPPPPRTEVQLLESGGGLVQPGGSLRLSCAASGFIFSNFAMTWVRQPPEKGLKWVSSINGSGFNTYYTDSVKGRFTISRDNSRNTLYLQMNRLTAEDTAVYFCAKEGSSETDDHYYNVDVWGQGTTVTVSS | binds

The next lines start with the values.

binding result | Binder
binds | PR003562 (bispecific antibody, human IgG1, kappa, L234A L235A, Structure 1, IgG-VH; CLDN18.2 Fab from PR002726, 4-1BB VH from PR001758; linker H1_15-RT; human IgG1 (AAG); also called CLDN18.2×4-1BB bispecific antibody molecule) light: not shown heavy: EVQLLESGGGLVQPGGSLRLSCAASGFTFSSFVMSWVRQAPGKGLEWVSTISGSGRSTYYADSVKGRFTISRDNSKNTLHLQMNSLRAEDTAVYYCAKDAAAAGTKFDYWGQGTLVTVSSASTKGPSVFPLAPSSKSTSGGTAALGCLVKDYFPEPVTVSWNSGALTSGVHTFPAVLQSSGLYSLSSVVTVPSSSLGTQTYICNVNHKPSNTKVDKKVEPKSCDKTHTCPPCPAPEAAGGPSVFLFPPKPKDTLMISRTPEVTCVVVDVSHEDPEVKFNWYVDGVEVHNAKTKPREEQYNSTYRVVSVLTVLHQDWLNGKEYKCKVSNKALGAPIEKTISKAKGQPREPQVYTLPPSREEMTKNQVSLTCLVKGFYPSDIAVEWESNGQPENNYKTTPPVLDSDGSFFLYSKLTVDKSRWQQGNVFSCSVMHEALHNHYTQKSLSLSPGEPKSSDKTHTPPPPPRTEVQLLESGGGLVQLGGSLRLSCAASGFTFSRYAMTWVRQAPEKGLEWVSSISGSGDDTYYGDSVKGRFTISRDNSQNTVYLQMNSLRAEDTAVYFCAKEKAGTTGDYYYNVDVWGQGTTVTVSS
binds | PR001760, anti-4-1BB heavy-chain antibody 1016P0011G10 (antibody, human IgG1, V domains shown, Fully human heavy-chain antibody (HCAb), heavy chain dimer without light chains; also called anti-4-1BB HCAb antibody) VH: EVQLVESGGGVVQPGGSLRLSCAASGFTFSNYAMTWVRQAPEKGLEWVSSISGSGVSTYYADSVKGRFTISRDNSKNTLYLQMTRLTAEDTAVYFCAKEGSSETDDHYYNVDVWGQGTTVTVSS
